Measurements: publication PMC9654219, “Molecular Mechanism of Sirtuin 1 Modulation by the AROS Protein” (International Journal of Molecular Sciences, 2022)

T1: Sirt3 residues 118–399 (human, UniProt Q9NTG7 118-399)
T1 construct: human Sirt3, residues 118-399 (pVFT3S); source: E. coli BL21 (DE3) CodonPlus, purified (Ni beads, TEV cleavage, ion exchange, S200 gel filtration)
T1 sequence (looked up): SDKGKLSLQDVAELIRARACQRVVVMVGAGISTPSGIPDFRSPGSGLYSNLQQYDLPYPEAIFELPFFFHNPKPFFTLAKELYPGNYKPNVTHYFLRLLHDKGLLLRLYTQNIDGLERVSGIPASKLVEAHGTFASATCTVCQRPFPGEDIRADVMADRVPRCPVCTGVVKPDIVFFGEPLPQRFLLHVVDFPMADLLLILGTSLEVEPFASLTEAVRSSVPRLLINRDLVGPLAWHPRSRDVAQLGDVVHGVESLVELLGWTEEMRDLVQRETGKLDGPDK

T2: full-length Sirt1 (human, UniProt Q96EB6 1-747)
T2 sequence (looked up): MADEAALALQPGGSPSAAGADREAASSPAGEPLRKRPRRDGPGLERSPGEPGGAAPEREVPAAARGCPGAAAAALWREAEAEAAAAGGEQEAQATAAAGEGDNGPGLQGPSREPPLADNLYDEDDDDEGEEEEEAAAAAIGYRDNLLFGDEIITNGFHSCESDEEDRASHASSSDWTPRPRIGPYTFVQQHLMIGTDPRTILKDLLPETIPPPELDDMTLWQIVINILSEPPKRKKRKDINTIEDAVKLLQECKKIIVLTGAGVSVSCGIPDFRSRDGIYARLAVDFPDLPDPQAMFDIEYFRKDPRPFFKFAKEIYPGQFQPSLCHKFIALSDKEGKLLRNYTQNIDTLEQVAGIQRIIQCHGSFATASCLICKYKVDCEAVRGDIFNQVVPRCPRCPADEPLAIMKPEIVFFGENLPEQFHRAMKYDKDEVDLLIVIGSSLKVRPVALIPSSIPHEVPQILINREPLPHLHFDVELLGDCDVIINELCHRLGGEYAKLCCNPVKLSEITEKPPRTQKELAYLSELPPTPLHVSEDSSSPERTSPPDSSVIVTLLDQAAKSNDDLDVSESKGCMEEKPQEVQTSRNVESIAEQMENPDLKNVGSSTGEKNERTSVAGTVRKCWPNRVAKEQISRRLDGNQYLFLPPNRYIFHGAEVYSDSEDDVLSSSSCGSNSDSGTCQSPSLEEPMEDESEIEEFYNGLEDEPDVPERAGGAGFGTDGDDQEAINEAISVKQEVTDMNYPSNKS

T3: Sirt5 residues 34–302 (human, UniProt Q9NXA8 34-302)
T3 construct: human Sirt5, residues 34-302 (pET151/D-TOPO); source: E. coli BL21 (DE3) CodonPlus, purified (Ni beads, TEV cleavage, S200 gel filtration)
T3 sequence (looked up): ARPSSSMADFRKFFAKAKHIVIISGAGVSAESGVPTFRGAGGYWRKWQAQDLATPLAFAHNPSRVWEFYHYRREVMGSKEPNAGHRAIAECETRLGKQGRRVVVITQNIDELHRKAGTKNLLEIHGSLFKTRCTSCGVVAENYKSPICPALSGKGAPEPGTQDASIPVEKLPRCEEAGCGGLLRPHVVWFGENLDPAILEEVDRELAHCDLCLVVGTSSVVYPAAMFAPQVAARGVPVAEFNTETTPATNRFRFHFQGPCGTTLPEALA

T4: AROS 1–89 (N-terminus of AROS) (human, UniProt Q86WX3 1-89)
T4 construct: human AROS (RPS19BP1), residues 1-89; Preparation is told for 'human AROS constructs' in general
T4 sequence (looked up): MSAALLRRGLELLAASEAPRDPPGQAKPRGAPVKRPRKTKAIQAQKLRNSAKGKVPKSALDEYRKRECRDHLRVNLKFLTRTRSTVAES

B1: active regulator of Sirt1 (AROS), full length, residues 1-136 (natural protein, human, UniProt Q86WX3 1-136, looked up)
chain: MSAALLRRGLELLAASEAPRDPPGQAKPRGAPVKRPRKTKAIQAQKLRNSAKGKVPKSALDEYRKRECRDHLRVNLKFLTRTRSTVAESVSQQILRQNRGRKACDRPVAKTKKKKAEGTVFTEEDFQKFQQEYFGS
notes: human AROS (RPS19BP1), residues 1-136, with N-terminal hexahistidine tag and TEV protease cleavage site (modified pET19b); No tag removal is described; 15N-labelled for the NMR titrations; In MST either AROS or Sirt1 carried Cy5 on lysines; also called AROS 1–136; full-length AROS; not shown: His6, N-terminal, kept
B2: mini-Sirt1ex687 (domain or fragment)
chain: GPYTFVQQHLMIGTDPRTILKDLLPETIPPPELDDMTLWQIVINILSEPPKRKKRKDINTIEDAVKLLQECKKIIVLTGAGVSVSCGIPDFRSRDGIYARLAVDFPDLPDPQAMFDIEYFRKDPRPFFKFAKEIYPGQFQPSLCHKFIALSDKEGKLLRNYTQNIDTLEQVAGIQRIIQCHGSFATASCLICKYKVDCEAVRGDIFNQVVPRCPRCPADEPLAIMKPEIVFFGENLPEQFHRAMKYDKDEVDLLIVIGSSLKVRPVALIPSSIPHEVPQILINREPLPHLHFDVELLGDCDVIINELCHRLGGEYAKLCCNPVGGGSGGGSQYLFLPPNRYIFHGAEVYSDSEDDVLSSSSCGSNSDSGTCQSPSLEE
B3: Sirt1 144–230 (N-terminus and SBD) (domain or fragment, human, UniProt Q96EB6 144-230, looked up)
chain: DNLLFGDEIITNGFHSCESDEEDRASHASSSDWTPRPRIGPYTFVQQHLMIGTDPRTILKDLLPETIPPPELDDMTLWQIVINILSE
notes: also called Sirt1-SBD

How the values were obtained:
mini-Sirt1ex687 = molecular target: B2; experiment: MST; either AROS or Sirt1 labelled with Cy5-NHS ester (40–120 nM labelled protein); 50 mM Na2HPO4/NaH2PO4 pH 7.0, 250 mM NaCl, 2 mg/mL BSA, 20 °C; Monolith NT.115; conditions: both partners purified
[1] = molecular target: B3; experiment: as above; conditions: both partners purified
Sirt3 residues 118–399 = molecular target: T1, Sirt3 residues 118–399; experiment: crystal structure; 10 mg/mL Sirt3 pre-incubated with 1 mM AROS peptide 62–71 and 1 mM AROS peptide 96–109; 12% PEG 8.000, 0.1 M HEPES pH 7.5, 0.2 M NaCl, 20 °C; 3.27 Å; conditions: both partners purified
full-length Sirt1 = molecular target: T2, full-length Sirt1; experiment: cell-based or functional assay
Sirt5 residues 34–302 = molecular target: T3, Sirt5 residues 34–302; experiment: cross-linking; 2 mM DSSO, 50 µM of each protein, 50 mM NaHPO4 pH 7, 250 mM NaCl, RT; SDS-PAGE; bands analysed by LC-ESI-MS/MS; conditions: both partners purified
[2] = molecular target: B1; experiment: MST; either AROS or Sirt1 labelled with Cy5-NHS ester (40–120 nM labelled protein); 50 mM Na2HPO4/NaH2PO4 pH 7.0, 250 mM NaCl, 2 mg/mL BSA, 20 °C; Monolith NT.115; conditions: both partners purified
[3] = molecular target: T4, AROS 1–89 (N-terminus of AROS); experiment: as above; conditions: both partners purified

Kd (mini-Sirt1ex687) | Kd [1] | Kd [3] | Binder | also measured
721 ± 310 µM | 579 ± 102 µM |  | TRTRSTVAESVS (human AROS (RPS19BP1), residues 80-91; also called AROS80-91; AROS 80–91; source: synthetic peptide, bought: GL Biochem) [AROS peptide 80-91] | 
151 ± 31 µM |  |  | RQNRGRKACDRPVA (human AROS (RPS19BP1), residues 96-109; also called AROS96-109; AROS 96–109; source: synthetic peptide, bought: GL Biochem) [AROS peptide 96-109] | 
86 ± 16 µM | 166 ± 24 µM |  | EYRKRECRDH (human AROS (RPS19BP1), residues 62-71; also called AROS62-71; AROS 62–71; source: synthetic peptide, bought: GL Biochem) [AROS peptide 62-71] | binding result (Sirt3 residues 118–399): binds
 |  |  | B1 | increase of KM for the acetylated FdL substrate peptide with 40 µM AROS (FdL activity assay, substrate titration) (full-length Sirt1): ~3 fold; binding result (Sirt5 residues 34–302): binds
 |  | 65 ± 9 µM | B2 | Kd [2]: 1.3 ± 0.2 µM
 |  | 209 ± 67 µM | B3 | 
